Positions count from the first letter of the chain named.
Columns and labels:
[1] = molecular target: T1, human beta klotho mutant R703A on HEK-293T cells (human, UniProt Q86Z14 1-1044); assay: shotgun alanine mutagenesis, FACS on HEK-293T cells, antibody 0.5 µg/ml
T1 sequence: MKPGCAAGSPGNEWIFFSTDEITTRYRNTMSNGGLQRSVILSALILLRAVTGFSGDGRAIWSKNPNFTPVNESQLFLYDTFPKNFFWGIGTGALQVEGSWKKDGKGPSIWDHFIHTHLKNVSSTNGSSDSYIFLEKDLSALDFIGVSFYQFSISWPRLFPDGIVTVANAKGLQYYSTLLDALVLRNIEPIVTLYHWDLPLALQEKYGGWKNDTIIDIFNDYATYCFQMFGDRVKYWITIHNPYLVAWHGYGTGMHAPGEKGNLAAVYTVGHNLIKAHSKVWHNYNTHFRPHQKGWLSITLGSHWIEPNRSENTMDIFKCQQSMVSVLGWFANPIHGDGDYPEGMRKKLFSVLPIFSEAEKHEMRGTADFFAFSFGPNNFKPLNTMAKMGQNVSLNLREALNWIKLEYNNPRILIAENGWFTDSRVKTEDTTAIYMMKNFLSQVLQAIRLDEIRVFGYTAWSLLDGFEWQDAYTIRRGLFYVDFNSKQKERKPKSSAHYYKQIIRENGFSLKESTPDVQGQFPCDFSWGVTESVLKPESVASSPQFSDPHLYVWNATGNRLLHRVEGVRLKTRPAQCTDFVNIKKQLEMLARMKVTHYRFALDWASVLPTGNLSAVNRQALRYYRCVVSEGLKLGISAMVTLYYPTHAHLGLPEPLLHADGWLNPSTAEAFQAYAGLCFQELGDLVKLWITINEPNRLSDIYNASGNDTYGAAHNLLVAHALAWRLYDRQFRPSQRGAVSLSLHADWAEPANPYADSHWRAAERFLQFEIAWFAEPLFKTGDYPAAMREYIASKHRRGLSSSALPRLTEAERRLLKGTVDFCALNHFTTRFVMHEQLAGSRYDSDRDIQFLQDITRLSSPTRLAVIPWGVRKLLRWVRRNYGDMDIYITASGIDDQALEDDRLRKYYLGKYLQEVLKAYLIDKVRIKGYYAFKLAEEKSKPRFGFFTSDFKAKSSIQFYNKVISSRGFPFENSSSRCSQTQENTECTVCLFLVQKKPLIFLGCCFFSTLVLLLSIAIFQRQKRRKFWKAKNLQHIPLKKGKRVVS
Method: (§1) In order to further identify specific binding residues within human beta klotho KL2 domain, shotgun mutagenesis was used to separately mutate individual residues of the KL2 domain of human beta klotho to an alanine (e.g., residues F508A-L1008A). […] For example, screening of the beta klotho mutant proteins was conducted at a concentration of 0.5 μg/ml for the humanized 5H23 antibody, 1.0 μg/ml for the Fab fragment, and 2.0 μg/ml for a positive control polyclonal anti-beta klotho antibodies.
(§2) The resulting mapping identified three specific binding residues, H657, Y701 and R703, which were negative for binding by the humanized 5H23 antibody, but were positive for the control polyclonal anti-beta klotho antibodies. These residues represented amino acids whose side changes made the highest energetic contributions to the antibody-epitope interation as shown in Table 31. The locations of the three identified residues were modeled by showing them (dark spheres) at the equivalent positions on human cytosolic beta-glucosidase (PDB ID #2JFE; Tribolo et al., J. Mol. Biol. 370, 964-975 (2007)), identified by BLAST alignment of the two proteins as shown in FIG. 6.

[2] = molecular target: T2, human beta klotho mutant Y701A on HEK-293T cells (human, UniProt Q86Z14 1-1044); assay: as above
T2 sequence: T1 sequence with Y701A, A703R
Method: as §1, §2

B1: humanized 5H23 antibody (VH SEQ ID NO: 271 and VL SEQ ID NO: 276) (antibody, V domains shown)
VH: QVQLQQSGAEVKKPGASVKVSCKASGYTFTSYDINWVRQAPGQGLEWIGWIYPGDGSTKYNEKFKGKATITRDTSASTAYMELSSLRSEDTAVYFCARSDYYGSRSFAYWGQGTLVTVSS
VL: DIVMTQSPDSLAVSLGERATINCRASKSVSTSGYVYMHWYQQKPGQPPKLLIYLASYLESGVPDRFSGSGSGTDFTLTISSVQAEDVAVYYCQHSRDLTFPFGGGTKLEIK
notes: also called h5H23; h5H23 (Prep 1)
[1]
  Binding Reactivity (% WT): 1.64 % WT
[2]
  Binding Reactivity (% WT): 0.64 % WT
